# According to article PMC9489475 (Nature structural & molecular biology, 2022):
# Molecular target: the molecule itself
# Test: cryo-EM structure
protein,measurement,value
"band 3 (native, full-length, from human erythrocyte membrane) (natural protein, human (endogenous in red blood cells), UniProt P02730 1-911, looked up, N-glycan site N642 (N-acetylglucosamine modelled close to N642)) MEELQDDYEDMMEENLEQEEYEDPDIPESQMEEPAAHDTEATATDYHTTSHPGTHKVYVELQELVMDEKNQELRWMEAARWVQLEENLGENGAWGRPHLSHLTFWSLLELRRVFTKGTVLLDLQETSLAGVANQLLDRFIFEDQIRPQDREELLRALLLKHSHAGELEALGGVKPAVLTRSGDPSQPLLPQHSSLETQLFCEQGDGGTEGHSPSGILEKIPPDSEATLVLVGRADFLEQPVLGFVRLQEAAELEAVELPVPIRFLFVLLGPEAPHIDYTQLGRAAATLMSERVFRIDAYMAQSRGELLHSLEGFLDCSLVLPPTDAPSEQALLSLVPVQRELLRRRYQSSPAKPDSSFYKGLDLNGGPDDPLQQTGQLFGGLVRDIRRRYPYYLSDITDAFSPQVLAAVIFIYFAALSPAITFGGLLGEKTRNQMGVSELLISTAVQGILFALLGAQPLLVVGFSGPLLVFEEAFFSFCETNGLEYIVGRVWIGFWLILLVVLVVAFEGSFLVRFISRYTQEIFSFLISLIFIYETFSKLIKIFQDHPLQKTYNYNVLMVPKPQGPLPNTALLSLVLMAGTFFFAMMLRKFKNSSYFPGKLRRVIGDFGVPISILIMVLVDFFIQDTYTQKLSVPDGFKVSNSSARGWVIHPLGLRSEFPIWMMFASALPALLVFILIFLESQITTLIVSKPERKMVKGSGFHLDLLLVVGMGGVAALFGMPWLSATTVRSVTHANALTVMGKASTPGAAAQIQEVKEQRISGLLVAVLVGLSILMEPILSRIPLAVLFGIFLYMGVTSLSGIQLFDRILLLFKPPKYHPDVPYVKRVKTWRMHLFTGIQIICLAVLWVVKSTPASLALPFVLILTVPLRRVLLPLIFRNVELQCLDADDAKATFDEEEGRDEYDEVAMPV",stoichiometry N,2
